Read-outs that look alike come from different tables or passages of the source.
Assays:
[1] = molecular target: T1, MBP-tagged NCS-1 (neuronal calcium sensor-1) (UniProt P62166 1-190); experiment: pull-down
[2] = molecular target: T1, MBP-tagged NCS-1 (neuronal calcium …); experiment: pull-down; remark: listed apart in the source

T1 sequence (P62166 whole entry): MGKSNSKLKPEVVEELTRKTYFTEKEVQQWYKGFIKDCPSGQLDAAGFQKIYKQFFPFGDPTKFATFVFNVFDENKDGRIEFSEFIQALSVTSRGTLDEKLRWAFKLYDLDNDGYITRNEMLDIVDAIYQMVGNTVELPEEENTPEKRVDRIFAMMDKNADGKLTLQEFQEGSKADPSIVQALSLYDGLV

relative binding (ratio of IQ-GST to NCS-1-MBP) [1]: 0.56 ± 0.06 | relative binding (ratio of IQ-GST to NCS-1-MBP) [2]: 0.57 ± 0.06
B1: GST-tagged IQ-like domain of CaV2.1 (domain or fragment)
chain: LMALIRTALDIKIAKGGADKQQMDAELRKEMMAIWPNLSQKTLDLLVTPHKSTDLTVGKIYAAMMIMEYYRQSKAKKLQAMREEQNRTPLMFQRMEPPSPTQEGGPSQNALPSTQLD
